The DeepSol protein solubility set

test: soluble on expression in E. coli; label from the status in PepcDB or PDB records

Sequence	soluble on expression in E. coli
MSWTGRLQCTAAFRNGRTVILDSYNEGALKLMRPVYLNSTYPTLYLVHVGGGYVDGDSYDMEISLEPSARLMVTTQSAAKIYKTPSTPVRQYTRFSLGEQSVLEYFPDPTIAYEHARFVQETTVYITSSSTVVYGEIITPGWSESGELFRYDWIRSKLKVYQDEALVLFDHLYLDSRQHLTSMLQLGGYTHVGSLVALSPFITKEVLERFNQFMEEMPQEVRCGFSAAAVPGFSVRILAYETSAIEAIFQRVQQFIRQQCGEKTPVCWRKY	not soluble
MSYFSHQDPNNPESHINFTMAQMEIQRWTLLISNPEADASTLVMELKTVTGESKHFINQAINAMWALMKLPILRVVVETHFHVRIPYLARIMQAVKQAKPELWDELDHRIAEKLTPRIAGQALMEASALAGLITRWIKELDPTFTGKKRGPKGSDGTLTFRHVDGRTYISGNIDGVTGKLFQKALEKVKQKGEDLARALVTFLAGRTKVKIVSAVYTPLVGGVSWIPGVGFLSQEESRKLGKTASKVIDLDTIATRVENGYTPSPELRLYVMGRDGTCRHPGCTVSADNCQIDHVIPFGEGGLTVAWNLQCLCAHHHNMKTDGRIQAAIDSMGRVAWIGPCNRTVVTEPVGPLAQEMPTGQWGQTLEARMEKTFEKLRSSLEVLDDLEHHHHHH	soluble
MSYLRALFFVLAMLATFGSMAGEPAHSDSGRDQVIRQILSDFWGNAKDVHGNAIQPASQEDRATVPISRAAAYRALEAGNLSGLAEWCGLDWEQHYLGLTEEARKMGMLDKQVAFFSVLHGAGQGAMVGSRSGQTCTAKQRTRIETLLLESQKEGLPSDALNGWQ	not soluble
MSYRESRQRLERLTESPSHLTIWRRMQELSYESKFEYESFVSADGTKLHAKRSKKLDVKVIAGKSVIVGINESHREMRGEYDVKATVVGDADRDLSCF	not soluble
MSYSSQGVVEKGKVMPGDVLATIEEFLPGEGVYVDPVKGFIRAAAPGVAYLDMSRRIAYVKPHKKPQTPGPGSEVAALVTGVRGDLVVAEVYGVVRLSPKPAWLYELPSPYSAAIPISQIADEYIKNIEDYYRMGDWILAKIVSRTPPFTLSTVEPRYGVVYAICSRCGAVMEFQSERSMKCPKCGNVEKRKVSIHAKSRHLRIRLVRNLVIYRS	soluble
MSYYHHHHHHLESTSLYKKAGLQALLLEQQDGKTLASVQTLDESRLPEGDVTVDVHWSSLNYKDALAITGKGKIIRNFPMIPGIDFAGTVRTSEDPRFHAGQEVLLTGWGVGENHWGGLAEQARVKGDWLVAMPQGLDARKAMIIGTAGFTAMLCVMALEDAGVRPQDGEIVVTGASGGVGSTAVALLHKLGYQVVAVSGRESTHEYLKSLGASRVLPRDEFAESRPLEKQVWAGAIDTVGDKVLAKVLAQMNYGGCVAACGLAGGFTLPTTVMPFILRNVRLQGVDSVMTPPERRAQAWQRLVADLPESFYTQAAKEISLSEAPNFAEAIINNQIQGRTLVKVN	soluble
MSYYLVQSTDEDILKHAECGGAVTAFFKYLLDKKLVDGVLALKKGEDVYDGLPYLVNDSKELVETCGSLHCAPTMFGNMISKHLKDMNLAVSVKPCDAMAIVELEKRHQIDKDKLYTIGLNCGGTVPPQTAKKMIELFYDVDPEDVIKEEIDKGKFIIELKDGSEKSVKIDELEEEGYGRRTNCQRCELKVPRNSDLACGNWGTEKGWTFVEVGSEKGEELLKNAQKEGYINVKAPSEKALEIRGKIEKSMINLGKKFQKEQLDEKYPEPEKWDEYWSRCIKCYGCRDVCPICFCKECALGEDYLDKGTIPPDPIMFQGIRLSHMSFSCINCGQCEDVCPVEIPLAKIYHRAQLKIRETTGFVPGIDDSMPFLYKLEHHHHHH	not soluble
MTAANLTEQQRLELEAAAFRTLVHHLQTRKDVQNIDLMNLAGFCRNCLSKWYKAAADDLGVEVSNDQAREEIYGMPYAEWKAKYQKEASPEQQAAFAKSQGNA	not soluble
MTAASLDPTAFSLDAASLAARLDAVFDQALRERRLVGAVAIVARHGEILYRRAQGLADREAGRPMREDTLFRLASVTKPIVALAVLRLVARGELALDAPVTRWLPEFRPRLADGSEPLVTIHHLLTHTSGLGYWLLEGAGSVYDRLGISDGIDLRDFDLDENLRRLASAPLSFAPGSGWQYSLALDVLGAVVERATGQPLAAAVDALVAQPLGMRDCGFVSAEPERFAVPYHDGQPEPVRMRDGIEVPLPEGHGAAVRFAPSRVFEPGAYPSGGAGMYGSADDVLRALEAIRANPGFLPETLADAARRDQAGVGAETRGPGWGFGYLSAVLDDPAAAGTPQHAGTLQWGGVYGHSWFVDRALGLSVLLLTNTAYEGMSGPLTIALRDAVYAR	soluble
MTADIRFDEKGLVPAIVQDAQSKEVLTLAYMNKESLEKTLETGETWFYSRSRQELWHKGATSGNVQRVVDIRYDCDADALLVLVEPAGPACHTGSYSCFSRSLDGAARTPAADRFAILNELEQIIAKRDAERPEGSYTTYLFEKGVDKILKKVGEEAAEVIIAAKNQNHEELKWEAADLLYHLLVLLREQKLPLDAVLATLAERHAQKVGAGDKKE	not soluble
MTAPGSMPLTVIGGFLGAGKTTLLNYLLKVQHSERVLVMVNDFGSINIDAELLDQGRHDRPGVVRLQNGCVCCSIGGDLMQAFLQVMSMPDRPDRIIVEASGVADPTRIAQIGRVSGGLSDEGVITLVDASAVRTLAADKYVGDIVRQQILSADIVLLNKLDLSSDAEIVETRAWLRDLAPRTRVVSCIHGEVDAVSVLGIGAGKVAPDAAGGPVDVPVPDLRRASTRHADTFHSSTLATAHRFDRRRIEYALDALPQTVLRGKGFVELEGEATPALLQLCGSRWTLDPVSTPAPPAGTHLVFIATGGRGVPRFDAPSHFEQALASRDAASADTSNLEHHHHHH	soluble
MTAPSLDNWEKRKRFVELPRKRQMAFIDTGGPGPVLLMLHGFSDTSRSFSIIEPYFQEYRLIAPDLPGHGASSVGHGFHVADFAETIDRFLTLMGVSRFFVLGHSMGAMTAIELAARRSSSVRGLALISGTLEPDFGTESKLARDILALRDPIKPAGGFLHDWYSCSRPVNEEFLFRMKRDAANMAATTWHGVLKAFAETDLHYSASKINVPVLCLAGSEDPLFDDSHRQQLFEAFPLAQTVTMPGHGHNPHWENPQGVSTLVTEFFAEVMTDASPVRVETAADKR	not soluble
MTAPTAHDYDVVIIGGGPAGLTAAIYTGRAQLSTLILEKGMPGGQIAWSEEVENFPGFPEPIAGMELAQRMHQQAEKFGAKVEMDEVQGVQHDATSHPYPFTVRGYNGEYRAKAVILATGADPRKLGIPGEDNFWGKGVSTCATCDGFFYKGKKVVVIGGGDAAVEEGMFLTKFADEVTVIHRRDTLRANKVAQARAFANPKMKFIWDTAVEEIQGADSVSGVKLRNLKTGEVSELATDGVFIFIGHVPNTAFVKDTVSLRDDGYVDVRDEIYTNIPMLFAAGDVSDYIYRQLATSVGAGTRAAMMTERQLAALEVEGEEVTAAD	soluble
MTAQTHNDVAVCWNQNANQWTSDVRNGYDVYRDFFTLPAFLQFLPTMADLNVIDFGCGEGSNTRHFAQMGAKVVGIDISNGLIEHARQAERVDPVGITYKIVSYSSDTGFPASSFDAVVSTMALMDGPDLQGAMHEAYRLLRPGGFVAFSVLHPCFITPGWQWQKDENGQTTGLCTSRYFDKSGFTENWKFGNRPKDENVAPFAVPRFPRTIGDYINAVASVGFRISKIEEPQPTEEACKAIPQLRRWRDLGAFLLLVIAERPKLEHHHHHH	soluble
MTATHDTIRLAEIAAKAAAEKLATNIAVIDVSDVMAISEVFVLASADNERQVRSIVEEIEDMLTAEGEEPKRREGNRENRWVLLDYGMLVIHVQRNTERDFYGLDRLYQDCPLIEVEGIDTMARPEEWAQDVDVRTVESLDEIPLAGEEPADEEF	not soluble
MTCDDLKSGEKRLIPKPTCRFKDAFQQYPDLLKSIIRVGILKPTPIQSQAWPIILQGIDLIVVAQTGTGKTLSYLMPGFIHLDSQPISREQRNGPGMLVLTPTRELALHVEAECSKYSYKGLKSICIYGGRNRNGQIEDISKGVDIIIATPGRLNDLQMNNSVNLRSITYLVIDEADKMLDMEFEPQIRKILLDVRPDRQTVMTSATWPDTVRQLALSYLKDPMIVYV	soluble
MTDDKKMFDINEFLKRHLFVKNWVNYRQQSYTKYELMQLIESVEAALSVDDTLAKISPPVTIVGDIHGQYPDLVRVLCNQNSKEDAKKKAAYGFCNSRFVFLGDYVDRGHHSIECISLVFALKVVYPTNYILLRGNHETKSINYTYGFREELVNRLGPIDGFEIWERFNVAFSWMPLACLVGHKILCMHGGISPKLHSLKEINEIDRPVAEILPDSLAQDLLWADPADGQGAMTVRSTPEYVPNGVRGLSFIFNEAAVRDTCKRLNINLIVRAHQMIPEGFKFFADQKLLTIFSAPRYMNETDNHGATLRVETDGKLNIGRFRHKKLLHANSADEITRGDDIPNLERKKSGSMPVKHLKTSSSSSPSHSNGKSKGGEGLSLGKI	not soluble
MTDFTTDIAQALVRKEDLKEVFRTHLENAVNTLLATELTAFLDYEKYDRGGFGSGNSRNGTYPRTLHTEFGDLHLSIPRDRNGEFHQQTISPYKRSNDTLESFVIHMYQKGVTTGEITDLLERMYGHHYTPQTISNMTKTMEKQVEAFKARTLAKRYVCVYLDATFIAIKRDTVSKEAVYLAIGIQEDGTKEVLAYTIAPTESALVWKEVLEDLQNRGVEDVLLFVSDGLKGIVDSIQSLFPSSSYQLCCVHLSRNLAHKVRVSDRAEVCGDFKRVYRATSKQEGQKALDDFVTKWKKVYPRATKSLEENPFILTFYDFPQAIWRSIYSTNLIESFNKQLKKYSKRKEQFPNEPSIERFLVSQFEPYNQKFSTRCHLGFDLARAELVSMFERRK	soluble
MTDHSIRSRALGAYLGLACGDALGATVEFLTKGEIAHQYGVHKHIKGGGWLKLPAGQVTDDTEMSIHLGRAILAAPEWDARRAAEEFAVWLKGVPVDVGDTTRRGIRRFIMHGTLSEPESEYHAGNGAAMRNLPVALATLGDDAAFERWTVEQAHITHCNAMSDAATLTLGHMVRRLVLGGDVRDVRDESNKLIAKHRQFKFQPYRGLATAYIVDTMQTVMHYYFQTDSVESCVVETVNQGGDADTTGAIAGMLAGATYGVETIPPRWLRKLDRDVYNEICAQVDGLLARAPALKQG	soluble
MTDIGAPVTVQVAVDPPYPVVIGTGLLDELEDLLADRHKVAVVHQPGLAETAEEIRKRLAGKGVDAHRIEIPDAEAGKDLPVVGFIWEVLGRIGIGRKDALVSLGGGAATDVAGFAAATWLRGVSIVHLPTTLLGMVDAAVGGKTGINTDAGKNLVGAFHQPLAVLVDLATLQTLPRDEMICGMAEVVKAGFIADPVILDLIEADPQAALDPAGDVLPELIRRAITVKAEVVAADEKESELREILNYGHTLGHAIERRERYRWRHGAAVSVGLVFAAELARLAGRLDDATAQRHRTILSSLGLPVSYDPDALPQLLEIMAGDKKTRAGVLRFVVLDGLAKPGRMVGPDPGLLVTAYAGVCAP	not soluble
MTDNLLSISAACLFDDQGNLLLVRKRGTQAFMLPGGKREPGETPLAALQRELLEELRLPMGASTFEHLGSFQAPAANEANTRVDADIYVARLPHAVCAQAELEELAWLVPGQAQPDNLAPLLRDHVLPALARRAAENPETQAEHRTRPDHVR	not soluble
MTDQQRRVVFMATSLLLDYPDDRWEDIIDAVSVQIDDLPKNTRQQFVQFLTAVRVMGRRGMEQHYVECFDQRRRCSLFLSYYAVGDTRQRGAAILAFQESLETLGFFLEREELPDHLCVVLEVAAKAEGLAHHVATDMLAAHRDGIEVLRVALEHSDSPYSRLVAAVCSALPDIDEETRKNFVDLIRSGPPAELIGIESPLPFPTATNV	not soluble
